System: aspRS-OB wild type (anticodon-binding OB-fold domain of aspartyl-tRNA synthetase) (Pyrobaculum aerophilum)
Assay: pulldown
Conditions: phage binding to immobilised tRNA; RNase A elution; VCS-M13 without display 1.42

Question: How did the binding signal (fold recovery over beads only) turn out when “asp-tRNA (P. aerophilum, in vitro transcript)” was run?
Answer: The binding signal (fold recovery over beads only) was 190.
